Results from patent US20210047411A1 (BIOND BIOLOGICS, published 2021).
No end group written: not given here.

What was measured:
[1] = molecular target: T1, recombinant human CD28 (R&D systems, Cat. No. 342-CD; human CD28-Ig chimera) (human, UniProt P10747 19-152); assay: direct ELISA, recombinant human sCD28 on maxisorp plates; reference CD28.2
T1 construct: extracellular domain; also called rhCD28; recombinant human sCD28; not shown: Ig (Fc) portion of the bought chimera; not specified

[2] = molecular target: T1, recombinant human CD28 (R&D systems, …); assay: direct ELISA, recombinant human sCD28 on maxisorp plates
[3] = molecular target: Irrelevant control (Table 1); assay: ELISA, same clone on the irrelevant control; unit not given
[4] = molecular target: T2, BSA conjugated CD28 stalk region dimeric peptide (human, not fully specified (C-terminus); also: hydrazide-terminated peptide conjugated to S-4FB modified BSA, dimeric peptide); assay: ELISA, antigen on plate, serial dilution of antibody
T2 construct: Dimeric peptide; dimerization confirmed on a non-denaturing gel; also called stalk region peptide; dimeric human CD28 stalk region peptide
T2 peptide: GKHLCPSPLFPGPSKPK

B1: Antibody #1 (antibody, mouse IgG1, kappa, V domains shown)
VH: QIQLVQSGPELKKPGETVKISCKASGYTLTNYGMNWVKQAPGKGLKWMGWINTYTGKPTYVDDFKGRFAFSLETSASTAYLQINNLKNEDTATYFCARGDANQQFAYWGQGTLVTVSA
VL: DIKMTQSPSSMYASLGERVTITCKASQDINSYLSWFQQKPGKSPKTLIYRANRLVDGVPSRFSGSGSGQDYSLTISSLEYDDMGIYYCLQYDEFPPTFGAGTKLELKR
fold detection against CD28.2 [1]: ~10 fold

B2: Antibody #2 (antibody, mouse IgG2b, kappa, V domains shown)
VH: QVQLQQSGAELARPGASVKLSCKASGYTFTSYWMQWIKKRPGQGLEWIGAIYPGDGDTRYTQKFKGKATLTADKSSTTAYMQLSSLASEDSAVYFCARNYRYSSFGYWGQGTLVTVSA
VL: DIVMTQSPSSLTVTAGEKVTLSCKSSQSLLNSGNQKNYLTWYQQKPGQPPQLLIYWASTRESGVPDRFTGSGSGTDFTLTISSVQAEDLAVYYCQSDYSYPLTFGAGTKLELKR
binding result [2]: binds

B3: clone M9 (antibody, V domains shown)
VH: DVKLVESGGGLVKLGGSLKLSCVASGFTFSSYYMSWVRQTPEKRLEWVATISDGGDNTYYAGTVTGRFTISRDFAKNTLYLQMNSLTSEDTAVYYCARIHWPYYFDSWGQGTTLTVSS
VL: QFVLSQSPAILSASPGEMLTMTCRASSSVSYMNWYQQKPGSSPKPWIYATSDLASGVPARFSGSGSGTSYSLTISRVEAEDAATYYCQQWSSHPPTFGGGTKLEIR
notes: also called 4G07; antibody M9
ELISA signal on irrelevant control [3]: 0.06
binding result [4]: binds
